In PMC9606039, “Molecular analysis of a public cross-neutralizing antibody response to SARS-CoV-2” (Cell Reports, 2022):

Target: T1, receptor-binding domain (RBD) (residues 319-541) of the SARS-CoV-2 spike (S) protein (SARS-CoV-2, ancestral Wuhan-Hu-1 …, UniProt P0DTC2)
T1 construct: also called SARS-CoV-2 RBD; wild-type RBD
Experiment: BLI
Settings: both partners purified

B1: 2-7 D54N Fab (Fab, V domains shown)
VH: QITLKESGPTLVKPTQTLTLTCTFSGFSLSTSGVGVGWIRQPPGKALEWLALIYWNDDKRYSPSLKSRLTITKDTSKNQVVLTMTNMDPVDTATYYCAHHKIERIFDYWGQGTLVTVSS
VL: QSALAQPASVSGSPGQSITISCTGTSSDVGAYNYVSWYQQHPGKAPKLMIYDVSKRPSGVSNRFSGSKSGNTASLTISGLQAEDEADYYCSSYTTSSTVFGGGTKLTVL
- fold weakening of KD against the wild-type Fab: ≥ 100 fold
